Patent US9958461B2, “Detection of protein to protein interactions” (THE GOVERNING COUNCIL OF THE UNIVERSITY OF TORONTO, priority 2013, dated 2018)

Experiments:
EGFR-L858R = target: T1, EGFR-L858R (Homo sapiens, UniProt P00533, L858R); experiment: MaMTH EGFR-interactor screen, lentiviral preys against EGFR-L858R bait (interaction score); assay type: cell-based; settings: MaMTH interaction score of prey with EGFR-L858R bait
T1 construct: with the advantage of testing full-length integral membrane proteins; (GGGGS)2 linker-Cub (human ubiquitin aa 35-76)-GAL4(1-147)-mNFkB(364-550) (C); expressed in transfected cells
Summary of the method: (§1)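 Interaction score is the luciferase fold-change versus averaged negative controls (Fabp5, Pex19, Pex7, GABBR2), with >1 called interacting. Luciferase was measured 24 h after triplicate bait transfection. This followed single-copy prey transduction (MOI ~0.3-0.4) of GAL4UAS-luciferase HEK293T cells and ≥48 h puromycin selection.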

EGFR-Wt [1] = target: T2, EGFR-Wt (Homo sapiens, UniProt P00533); experiment: MaMTH EGFR-interactor screen, lentiviral preys against EGFR-wildtype bait (interaction score); assay type: cell-based; settings: MaMTH interaction score of prey with EGFR-Wt bait, mean
T2 construct: with the advantage of testing full-length integral membrane proteins; (GGGGS)2 linker-Cub (human ubiquitin aa 35-76)-GAL4(1-147)-mNFkB(364-550) (C); expressed in transfected cells
Summary of the method: as §1

EGFR-Wt [2] = experiment: as above; assay type: cell-based, human; settings: ratio of EGFR-Wt mean to EGFR-L858R mean interaction score
Summary of the method: as §1

Molecule | EGFR-L858R mean (EGFR-L858R) | EGFR-Wt mean (EGFR-Wt [1]) | Wt/L858R (EGFR-Wt [2])
CISH (protein, UniProt Q9NSE2 1-258, looked up) Cytokine-inducible …: MVLCVQGPRPLLAVERTGQRPLWAPSLELPKPVMQPLPAGAFLEEVAEGTPAQTESEPKVLDPEEDLLCIAKTFSYLRESGWYWGSITASEARQHLQKMPEGTFLVRDSTHPSYLFTLSVKTTRGPTNVRIEYADSSFRLDSNCLSRPRILAFPDVVSLVQHYVASCTADTRSDSPDPAPTPALPMPKEDAPSDPALPAPPPATAVHLKLVQPFVRRSSARSLQHLCRLVINRLVADVDCLPLPRRMADYLRQYPFQL | 2.66 | 1.29 | 0.49
EPS8 (protein, UniProt Q12929 1-822, looked up) Epidermal growth factor …: MNGHISNHPSSFGMYPSQMNGYGSSPTFSQTDREHGSKTSAKALYEQRKNYARDSVSSVSDISQYRVEHLTTFVLDRKDAMITVDDGIRKLKLLDAKGKVWTQDMILQVDDRAVSLIDLESKNELENFPLNTIQHCQAVMHSCSYDSVLALVCKEPTQNKPDLHLFQCDEVKANLISEDIESAISDSKGGKQKRRPDALRMISNADPSIPPPPRAPAPAPPGTVTQVDVRSRVAAWSAWAADQGDFEKPRQYHEQEETPEMMAARIDRDVQILNHILDDIEFFITKLQKAAEAFSELSKRKKNKKGKRKGPGEGVLTLRAKPPPPDEFLDCFQKFKHGFNLLAKLKSHIQNPSAADLVHFLFTPLNMVVQATGGPELASSVLSPLLNKDTIDFLNYTVNGDERQLWMSLGGTWMKARAEWPKEQFIPPYVPRFRNGWEPPMLNFMGATMEQDLYQLAESVANVAEHQRKQEIKRLSTEHSSVSEYHPADGYAFSSNIYTRGSHLDQGEAAVAFKPTSNRHIDRNYEPLKTQPKKYAKSKYDFVARNNSELSVLKDDILEILDDRKQWWKVRNASGDSGFVPNNILDIVRPPESGLGRADPPYTHTIQKQRMEYGPRPADTPPAPSPPPTPAPVPVPLPPSTPAPVPVSKVPANITRQNSSSSDSGGSIVRDSQRHKQLPVDRRKSQMEEVQDELIHRLTIGRSAAQKKFHVPRQNVPVINITYDSTPEDVKTWLQSKGFNPVTVNSLGVLNGAQLFSLNKDELRTVCPEGARVYSQITVQKAALEDSSGSSELQEIMRRRQEKISAAASDSGVESFDEGSSH | 5.58 | 2.62 | 0.47
CDC25C (protein, UniProt P30307 2-473, looked up) M-phase inducer phosphatase 3: STELFSSTREEGSSGSGPSFRSNQRKMLNLLLERDTSFTVCPDVPRTPVGKFLGDSANLSILSGGTPKRCLDLSNLSSGEITATQLTTSADLDETGHLDSSGLQEVHLAGMNHDQHLMKCSPAQLLCSTPNGLDRGHRKRDAMCSSSANKENDNGNLVDSEMKYLGSPITTVPKLDKNPNLGEDQAEEISDELMEFSLKDQEAKVSRSGLYRSPSMPENLNRPRLKQVEKFKDNTIPDKVKKKYFSGQGKLRKGLCLKKTVSLCDITITQMLEEDSNQGHLIGDFSKVCALPTVSGKHQDLKYVNPETVAALLSGKFQGLIEKFYVIDCRYPYEYLGGHIQGALNLYSQEELFNFFLKKPIVPLDTQKRIIIVFHCEFSSERGPRMCRCLREEDRSLNQYPALYYPELYILKGGYRDFFPEYMELCEPQSYCPMHHQDHKTELLRCRSQSKVQEGERQLREQIALLVKDMSP | 3.94 | 2.12 | 0.54

Now from value to molecule, other results behind:

EGFR-L858R mean (EGFR-L858R) | EGFR-Wt mean (EGFR-Wt [1]) | Molecule | Wt/L858R (EGFR-Wt [2])
2.68 | 1.45 | VAV1 (protein, UniProt P15498 1-845, looked up) Proto-oncogene vav: MELWRQCTHWLIQCRVLPPSHRVTWDGAQVCELAQALRDGVLLCQLLNNLLPHAINLREVNLRPQMSQFLCLKNIRTFLSTCCEKFGLKRSELFEAFDLFDVQDFGKVIYTLSALSWTPIAQNRGIMPFPTEEESVGDEDIYSGLSDQIDDTVEEDEDLYDCVENEEAEGDEIYEDLMRSEPVSMPPKMTEYDKRCCCLREIQQTEEKYTDTLGSIQQHFLKPLQRFLKPQDIEIIFINIEDLLRVHTHFLKEMKEALGTPGAANLYQVFIKYKERFLVYGRYCSQVESASKHLDRVAAAREDVQMKLEECSQRANNGRFTLRDLLMVPMQRVLKYHLLLQELVKHTQEAMEKENLRLALDAMRDLAQCVNEVKRDNETLRQITNFQLSIENLDQSLAHYGRPKIDGELKITSVERRSKMDRYAFLLDKALLICKRRGDSYDLKDFVNLHSFQVRDDSSGDRDNKKWSHMFLLIEDQGAQGYELFFKTRELKKKWMEQFEMAISNIYPENATANGHDFQMFSFEETTSCKACQMLLRGTFYQGYRCHRCRASAHKECLGRVPPCGRHGQDFPGTMKKDKLHRRAQDKKRNELGLPKMEVFQEYYGLPPPPGAIGPFLRLNPGDIVELTKAEAEQNWWEGRNTSTNEIGWFPCNRVKPYVHGPPQDLSVHLWYAGPMERAGAESILANRSDGTFLVRQRVKDAAEFAISIKYNVEVKHIKIMTAEGLYRITEKKAFRGLTELVEFYQQNSLKDCFKSLDTTLQFPFKEPEKRTISRPAVGSTKYFGTAKARYDFCARDRSELSLKEGDIIKILNKKGQQGWWRGEIYGRVGWFPANYVEEDYSEYC | 0.54
4.35 | 2.37 | HDAC7 (protein, UniProt Q8WUI4 1-952, looked up) Histone deacetylase 7: MDLRVGQRPPVEPPPEPTLLALQRPQRLHHHLFLAGLQQQRSVEPMRLSMDTPMPELQVGPQEQELRQLLHKDKSKRSAVASSVVKQKLAEVILKKQQAALERTVHPNSPGIPYRTLEPLETEGATRSMLSSFLPPVPSLPSDPPEHFPLRKTVSEPNLKLRYKPKKSLERRKNPLLRKESAPPSLRRRPAETLGDSSPSSSSTPASGCSSPNDSEHGPNPILGSEALLGQRLRLQETSVAPFALPTVSLLPAITLGLPAPARADSDRRTHPTLGPRGPILGSPHTPLFLPHGLEPEAGGTLPSRLQPILLLDPSGSHAPLLTVPGLGPLPFHFAQSLMTTERLSGSGLHWPLSRTRSEPLPPSATAPPPPGPMQPRLEQLKTHVQVIKRSAKPSEKPRLRQIPSAEDLETDGGGPGQVVDDGLEHRELGHGQPEARGPAPLQQHPQVLLWEQQRLAGRLPRGSTGDTVLLPLAQGGHRPLSRAQSSPAAPASLSAPEPASQARVLSSSETPARTLPFTTGLIYDSVMLKHQCSCGDNSRHPEHAGRIQSIWSRLQERGLRSQCECLRGRKASLEELQSVHSERHVLLYGTNPLSRLKLDNGKLAGLLAQRMFVMLPCGGVGVDTDTIWNELHSSNAARWAAGSVTDLAFKVASRELKNGFAVVRPPGHHADHSTAMGFCFFNSVAIACRQLQQQSKASKILIVDWDVHHGNGTQQTFYQDPSVLYISLHRHDDGNFFPGSGAVDEVGAGSGEGFNVNVAWAGGLDPPMGDPEYLAAFRIVVMPIAREFSPDLVLVSAGFDAAEGHPAPLGGYHVSAKCFGYMTQQLMNLAGGAVVLALEGGHDLTAICDASEACVAALLGNRVDPLSEEGWKQKPNLNAIRSLEAVIRVHSKYWGCMQRLASCPDSWVPRVPGADKEEVEAVTALASLSVGILAEDRPSEQLVEEEEPMNL | 0.55
2.70 | 1.50 | PAK1 (protein, UniProt Q13153 2-545, looked up) Serine/threonine-protein …: SNNGLDIQDKPPAPPMRNTSTMIGAGSKDAGTLNHGSKPLPPNPEEKKKKDRFYRSILPGDKTNKKKEKERPEISLPSDFEHTIHVGFDAVTGEFTGMPEQWARLLQTSNITKSEQKKNPQAVLDVLEFYNSKKTSNSQKYMSFTDKSAEDYNSSNALNVKAVSETPAVPPVSEDEDDDDDDATPPPVIAPRPEHTKSVYTRSVIEPLPVTPTRDVATSPISPTENNTTPPDALTRNTEKQKKKPKMSDEEILEKLRSIVSVGDPKKKYTRFEKIGQGASGTVYTAMDVATGQEVAIKQMNLQQQPKKELIINEILVMRENKNPNIVNYLDSYLVGDELWVVMEYLAGGSLTDVVTETCMDEGQIAAVCRECLQALEFLHSNQVIHRDIKSDNILLGMDGSVKLTDFGFCAQITPEQSKRSTMVGTPYWMAPEVVTRKAYGPKVDIWSLGIMAIEMIEGEPPYLNENPLRALYLIATNGTPELQNPEKLSAIFRDFLNRCLEMDVEKRGSAKELLQHQFLKIAKPLSSLTPLIAAAKEATKNNH | 0.55
14.05 | 7.39 | PDCD6IP (protein, UniProt Q8WUM4 2-868, looked up) Programmed cell death …: ATFISVQLKKTSEVDLAKPLVKFIQQTYPSGGEEQAQYCRAAEELSKLRRAAVGRPLDKHEGALETLLRYYDQICSIEPKFPFSENQICLTFTWKDAFDKGSLFGGSVKLALASLGYEKSCVLFNCAALASQIAAEQNLDNDEGLKIAAKHYQFASGAFLHIKETVLSALSREPTVDISPDTVGTLSLIMLAQAQEVFFLKATRDKMKDAIIAKLANQAADYFGDAFKQCQYKDTLPKEVFPVLAAKHCIMQANAEYHQSILAKQQKKFGEEIARLQHAAELIKTVASRYDEYVNVKDFSDKINRALAAAKKDNDFIYHDRVPDLKDLDPIGKATLVKSTPVNVPISQKFTDLFEKMVPVSVQQSLAAYNQRKADLVNRSIAQMREATTLANGVLASLNLPAAIEDVSGDTVPQSILTKSRSVIEQGGIQTVDQLIKELPELLQRNREILDESLRLLDEEEATDNDLRAKFKERWQRTPSNELYKPLRAEGTNFRTVLDKAVQADGQVKECYQSHRDTIVLLCKPEPELNAAIPSANPAKTMQGSEVVNVLKSLLSNLDEVKKEREGLENDLKSVNFDMTSKFLTALAQDGVINEEALSVTELDRVYGGLTTKVQESLKKQEGLLKNIQVSHQEFSKMKQSNNEANLREEVLKNLATAYDNFVELVANLKEGTKFYNELTEILVRFQNKCSDIVFARKTERDELLKDLQQSIAREPSAPSIPTPAYQSSPAGGHAPTPPTPAPRTMPPTKPQPPARPPPPVLPANRAPSATAPSPVGAGTAAPAPSQTPGSAPPPQAQGPPYPTYPGYPGYCQMPMPMGYNPYAYGQYNMPYPPVYHQSPGQAPYPGPQQPSYPFPQPPQQSYYPQQ | 0.53
11.39 | 5.31 | SHC4 (protein, UniProt Q6S5L8 1-630, looked up) SHC-transforming protein 4: MRERGQDSLAGLVLYVGLFGHPGMLHRAKYSRFRNESITSLDEGSSGGSVGNKGSPQPPHPALAPHLPTEDATLPSQESPTPLCTLIPRMASMKLANPATLLSLKNFCLGTKEVPRLKLQESRDPGSSGPSSPETSLSRSGTAPPPQQDLVGHRATALTPDSCPLPGPGEPTLRSRQDRHFLQHLLGMGMNYCVRYMGCVEVLQSMRSLDFGMRTQVTREAISRLCEAVPGANGAIKKRKPPVKFLSTVLGKSNLQFSGMNIKLTISTCSLTLMNLDNQQIIANHHMQSISFASGGDPDTTDYVAYVAKDPVNQRACHILECHNGMAQDVISTIGQAFELRFKQYLKNPSLNTSCESEEVHIDSHAEEREDHEYYNEIPGKQPPVGGVSDMRIKVQATEQMAYCPIQCEKLCYLPGNSKCSSVYENCLEQSRAIGNVHPRGVQSQRDTSLLKHTCRVDLFDDPCYINTQALQSTPGSAGNQRSAQPLGSPWHCGKAPETVQPGATAQPASSHSLPHIKQQLWSEECYHGKLSRKAAESLLVKDGDFLVRESATSPGQYVLSGLQGGQAKHLLLVDPEGKVRTKDHVFDNVGHLIRYHMDNSLPIISSGSEVSLKQPVRKDNNPALLHSNK | 0.47
